System: pathway specific substrates
Assay: Enzyme functionality of pathway enzyme homologs and fusion constructs in lysed E. coli cell extracts, product by HPLC
Type: biochemical, E. coli BL21
Details: recombinant E. coli BL21 clone, lysed cell extract
In short: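 Enzymes and fusion constructs were expressed in E. coli BL21 (pET28, T7 promoter) with 0.1 mM IPTG at 30 °C for ~20 h in M9 medium. Cleared freeze-thaw lysates were incubated with pathway-specific substrates. Products were quantified by HPLC relative to empty-plasmid lysates.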

B1: O-methyltransferase 3 (OMT) (SEQ ID NO: 30) Sinopodophyllum hexandrum (protein)
chain: MEMAPTMDLEIRNGNGYGDSGEELLAAQAHIYNHIFNFISSMALKCAVELNIPEILHNHQPKAVTLSELVQALQIPQAKSACLYRLLRILVHSGFFAITKIQSEGDEEGYLPTLSSKLLLKNHPMSMSPCLLGLVNPTMVAPMHFFSDWFKRSDDMTPFEATHGASLWKYFGETPHMAEIFNEAMGCETRLAMSVVLKECKGKLEGISSLVDVGGGTGNVGRAIAEAFPNVKCTVLDLPQVVGNLKGSNNLEFVSGDMFQFIPPADVVFLKWILHDWNDEECIKILKRCKEAIPSKEEGGKLIIIDMVVNDHNKGSYESTETQLFYDLTLMALLTGTERTETEWKKLFVAAGFTSYIISPVLGLKSIIEVFP
modifications: Depcits amino acid sequence of O-methyltransferase 3 (OMT) of Sinopodophyllum hexandrum
Enzyme activity in terms of product formation (in %) (substrate tested: Pluviatolide): 99%

B2: Caffeoyl CoA O-methyltransferase (CCoAOMT) (SEQ ID NO: 16) Eleocharis dulcis (protein)
chain: MSTTTTTQTKTETQSQTGAQNGAEQQTRHSEVGHKSLLQSDALYQYILETSVYPREPECMKELRDITAKHPWNLMTTSADEGQFLNLLLKLIGAKKTMEIGVYTGYSLLATALAIPEDGTILAMDINRENYELGLPVIEKAGVAHKIDFREGPALPVLDQLIEDPANLGSFDFIFVDADKDNYLNYHKRLIELVKVGGVIGYDNTLWNGSVVLPADAPMRKYIRYYRDFVLELNKALAADPRIEISQLPVGDGITLCRRVK
modifications: Depicts the amino acid sequence of enzyme Caffeoyl CoA O-methyltransferase (CCoAOMT)
Enzyme activity in terms of product formation (in %) (substrate tested: Caffeoyl coA): 61%

B3: CYP71 (SEQ ID NO: 32) Cinnamomum micranthum (protein)
chain: MALLLSLLFFASALIFLLKLNGQRANKTDVPPSPPKLPLIGNLHQLGTLPHRSLRSLAGKYGPLMLLYLGRIPTLIVSSEEMAEQIMKTHDLIFASRPSITAAKELLYGCTDLAFASYGEYWRQVRKMCVLELLSIKRVNSFRSIMEEEVGLMIERISQSSSTGAAVNLAELFLSLTGGTIARAALGKKYEGEAEEGRNKYADLVKELHALLGAFSVGDYFPSLAWVDVVTGLHGKLKRNSRELDRFLDQVIEHHLMRPLDGCDVGEHTDLVDVMLQVQKDSNRDIHLTRDNIKAIILDMFSAGTDTTALTLEWVMAELAKHPNVMKKAQGEVRRVVDVKANISEEHLCQLNYMKSIIKETLRLHPPAPLLVPRESTTNVKIQNFHIPPKTRVFINAYAIGRDPTSWENPEEFLPERFANNSVDFKGQDFQFIPFGAGRRGCPGLSFAITSLELALANLLYWFDWELPQGVTEEDLDMSEALGITVHKKLPLYLVPKNHFS
modifications: Depicts the amino sequence of CYP71 of Cinnamomum micranthum
Enzyme activity in terms of product formation (in %) (substrate tested: Bursehernin): 94%

B4: O-methyltransferase 3 (OMT) (SEQ ID NO: 28) Papaver somniferum (protein, listed as Papaver somniferum)
chain: MEVVSKIDQENQAKIWKQIFGFAESLVLKCAVQLEIAETLHNNVKPMSLSELASKLPAQPVNEDRLYRILHFLVHMKLFNKDATTQKYSLAPPAKYLLKGWEKSMVPSILSVTDKDFTAPWNHLGDGLTGNCNAFEKALGKGIRVYMRENPEKDQLFNEGMACDTRLFASALVNECKSIFSDGINTLAGVGRGTGTAVKAISKAFPDIKCTIHDLPEVTSKNSKIPRDVFKSVPSADAIFMKSILHEWNDEECIQILKRCKEAIPKGGKVIIADVVIDMDSTHPYSKSRLAMDLAMMLHTGGKERTEEDWKKLIDAAGFASCKITKLSALQSVIEAYPH
Enzyme activity in terms of product formation (in %) (substrate tested: Pluviatolide): 88%

B5: Caffeoyl CoA O-methyltransferase (CCoAOMT) (SEQ ID NO: 18) Chamaecyparis formosensis (protein)
chain: MATVEATKDSTQQVSRHQEVGHKSLLQSDALYQYILETSVYPREPEPMRELREITAKHPWNLMTTSADEGQFLHLLLKLINAKNTMEIGVYTGYSLLSTALALPDDGKILAMDINRENYELGLPVIQKAGVAHKIDFREGPALPVLDQMLENKEMHGSFDFIFVDADKDNYLNYHKRLIDLVKIGGVIGYDNTLWNGSVVAPPDAPMRKYVRYYRDFVIELNKALAADPRIEISQIPVGDGITLCRRII
modifications: Depicts the amino acid sequence of Caffeoyl CoA O-methyltransferase (CCoAOMT) of Chamaecyparis formosensis
Enzyme activity in terms of product formation (in %) (substrate tested: Caffeoyl coA): 95%

B6: Bifunctional pinoresinol-lariciresinol reductase (DIRPLR) (SEQ ID NO: 20) Linum usitatissimum (protein, listed as Linum usitatissimum)
chain: MGRCRVLVVGGTGYIGKRIVKASIEHGHDTYVLKRPETGLDIEKFQLLLSFKKQGAHLVEASFSDHESLVRAVKLVDVVICTVSGAHSRSLLLQLKLVEAIKEAGNVKRFIPSEFGMDPARMGDALEPGRETFDLKMVVRKAIEDANIPHTYISANCFGGYFVGNLSQLGPLTPPSDKVTIYGDGNVKVVYMDEDDVATYTIMTIEDDRTLNKTMYFRPPENVITHRQLVETWEKLSGNQLQKTELSSQDFLALMEGKDVAEQIVIGHLYHIYYEGCLTNFDIDADQDQVEASSLYPEVEYTRMKDYLMIYL
Enzyme activity in terms of product formation (in %) (substrate tested: Coniferyl alcohol): 98%

B7: CYP719 Coptis japonica (protein, UniProt Q948Y1 1-491, looked up)
(S)-canadine synthase: MEMNPLLVCATVAIVFATTTIIRILFSSSSLPQMKWPSGPRKLPIIGNLHQLGDDVLHVALAKLAKVHGSVMTIWIGSWRPVIVISDIEKAWEVLVNKSADYGARDMPEITKIASASWHTISTSDAGSFWQNVRKGLQSGAMGPLNVAAQNQYQERDMKRLIKAMSDEAANNNGIVKPLDHIKKNTVRLLTRLIFGQAFDDNKFIESMHYEIEDIIRISGYARLAEAFYYAKYLPSHKKAEREAFLVKCRVEELVRPLLSSKPPTNSYLYFLLSQNFEEEVIIFCIFELYLLGVDSTSSTTTWALAYLIREQGAQEKLYQDIRMTLGDVDLVKIEDVNKLKYLQGVVKETMRMKPIAPLAIPHKTAKETTLMGTKVAKGTRIMVNLYALHHNQNIWPDPYKFMPERFLEGETGTAYNKAMEQSFLPFSAGMRICAGMDLGKLQFAFALANLVNAFKWSCVEEGKLPDMGEELSFVLLMKTPLEARIAGRNV
Enzyme activity in terms of product formation (in %) (substrate tested: Matairesinol): 0%

B8: CYP719 (SEQ ID NO: 26) Cinnamomum micranthum (protein)
chain: MEAIWTAVAIGIAAAVLMAFRGRQRQRLSRKPTQWPPGPTRLPLIGNMHQILLKGGDPFHVAINKLAQVYGPLMTVWFGTRQPTIIVSDHNLVWEVLVSKSADYAAREIPITLKPSLADFRTIVSSNAGPLWHSLRRGLQNGAIGPHSLSLQAPFQESDMAQMINNMIKEANLNGGVVKPFPHIRRAIIKLLARICFGCDFSDEEFDATMDFMVEEALRYSDDSRILDTFPPARFLPSVKRAVMQMEKVKLRLMECIGRPLDSPLPPTCYAHFLLSQSFPREVAIFSIFELFLLGVDSTGSTTMWGLGLLMQNQEAQQKLYQEIREHASCNEKGVVKVEELGKLEYLQAVAKETMRMKPIAPLAVPHQAARDTTLDGLHVAEGTTVLANLYALHYDPKVWDEPERFKPERFLESSKEFLGKRGQYSFLPFGAGMRACAGMEVGKLQLPFAICNLVNAFNWSNVVEKEAPKLIEGFSFILSMKTPLEARIVPRGI
modifications: Depicts the amino acid sequence of CYP719 of Cinnamomum micranthum
Enzyme activity in terms of product formation (in %) (substrate tested: Matairesinol): 97%

B9: CYP719 (SEQ ID NO: 24) Papaver somniferum (protein, listed as Papaver somniferum)
chain: MIMSNLWILTLISTILAVFAAVLIIFRRRISASTTEWPVGPKTLPIIGNLHILGGTALHVVLHKLAEVYGSVMTIWIGSWKPVIIVSDFDRAWEVLVNKSSDYSAREMPEITKIGTANWRTISSSDSGPFWATLRKGLQSVALSPQHLASQTAHQERDIIKLIKNLKDEAASGMVKPLDHLKKATVRLISRLIYGQDFDDDKYVEDMHDVIEFLIRISGYAQLAEVFYYAKYLPGHKRAVTGAEEAKRRVIALVRPFLQSNPATNTYLHFLKSQLYPEEVIIFAIFEAYLLGVDSTSSTTAWALAFLIREPSVQEKLYQELKNFTANNNRTMLKVEDVNKLPYLQAVVKETMRMKPIAPLAIPHKACKDTSLMGKKVDKGTKVMVNIHALHHTEKVWKEPYKFIPERFLQKHDKAMEQSLLPFSAGMRICAGMELGKLQFSFSLANLVNAFKWSCVSDGVLPDMSDLLGFVLFMKTPLEARIVPRL
Enzyme activity in terms of product formation (in %) (substrate tested: Matairesinol): 76%

B10: Secoisolariciresinol dehydrogenase (SDH) (SEQ ID NO: 22) Juglans regia (protein, listed as Juglans regia)
chain: MNGTSSLLAPIAKRLAGKVALITGGASGIGESTARLFAEQGAKVIIADVQDELGFSVSQDKSINGAISYIHCDVTSESDVQNAVNTAVSKHGKLDIMFNTAGCTGQNKASILDHEQKDYKTVFDVNVLGSFLGAKHAAKVMIPVKRGTILFTASCVTESHGLASHSYTASKHAVVGLTKNLCVELGQYGIRVNCISPYGAATPLFLKGMGIDKKEKAEEILSSAANLKGPVLEAGDLAEAALFLASEESKYVSVLNLVVDGGYSATNVAFTETIQKFFT
Enzyme activity in terms of product formation (in %) (substrate tested: Secoisolariciresinol): 99%
